IntAct's records for PubMed 17717528

B1: Circadian clock oscillator protein KaiC (Thermosynechococcus elongatus (strain BP-1)), Q79V60 (parent)
chain: MTNLPEHQSSPTEQSSAEVKKIPTMIEGFDDISHGGLPQGRTTLVSGTSGTGKTLFAVQFLYNGITIFNEPGIFVTFEESPQDIIKNALSFGWNLQSLIDQGKLFILDASPDPDGQEVAGDFDLSALIERIQYAIRKYKATRVSIDSVTAVFQQYDAASVVRREIFRLAFRLKQLGVTTIMTTERVDEYGPVARFGVEEFVSDNVVILRNVLEGERRRRTVEILKLRGTTHMKGEYPFTINNGINIFPLGAMRLTQRSSNVRVSSGVKTLDEMCGGGFFKDSIILATGATGTGKTLLVSKFLETGCQQGERALLFAYEESRAQLSRNASSWGIDFEELERRGLLRIICAYPESAGLEDHLQIIKSEIADFKPSRVAIDSLSALARGVSNNAFRQFVIGVTGFAKQEEITGFFTNTTDQFMGSNSITESHISTITDTILLLQYVEIRGEMSRAINVFKMRGSWHDKGIREYVITEKGAEIRDSFRNFEGIISGTPTRISVDEKTELARIAKGMQDLESE
partner: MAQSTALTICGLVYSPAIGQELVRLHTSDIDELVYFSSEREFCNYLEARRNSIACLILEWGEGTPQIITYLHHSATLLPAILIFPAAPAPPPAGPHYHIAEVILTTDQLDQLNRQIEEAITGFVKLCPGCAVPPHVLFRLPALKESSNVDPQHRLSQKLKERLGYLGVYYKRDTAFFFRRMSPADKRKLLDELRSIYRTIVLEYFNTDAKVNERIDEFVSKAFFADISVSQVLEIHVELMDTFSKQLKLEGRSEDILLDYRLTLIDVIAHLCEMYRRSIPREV
B2: Circadian clock oscillator protein KaiC (Thermosynechococcus elongatus (strain BP-1)), Q79V60 (parent)
chain: B1 chain
partner: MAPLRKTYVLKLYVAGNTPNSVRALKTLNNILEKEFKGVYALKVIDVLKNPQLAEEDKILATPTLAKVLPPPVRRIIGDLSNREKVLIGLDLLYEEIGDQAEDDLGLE

Variants of: B1
Conditions: with kaia_thevb kaiA

Row | effect of a mutation on the interaction | Variant
1 | decreasing interaction | T432A

Variants of: B2
Conditions: with kaib_thevb kaiB

Row | effect of a mutation on the interaction | Variant
2 | disrupting interaction | T432A
